Earlier results as cited in article PMC10530560 (Cell chemical biology, 2023).

Assays:
CXCL12 [1] = system: CXCL12
CCL5 [2] = system: CCL5
VISTA = settings: pH-dependent; dependent on tyrosine sulfation, not on SLe^x on Thr57
CXCL12 [3] = settings: CXCL12, chemotaxis assays using murine T-cells from WT and PSGL-1 null mice
CCL5 [4] = settings: CCL5, immobilized rPSGL-1 with SLe^x modification

Molecule	heparan sulfate binding (CXCL8)	heparan sulfate binding (CXCL12 [1])	heparan sulfate binding (CCL3)	heparan sulfate binding (CCL5 [2])	binding of VISTA (VISTA)	binding to PSGL-1 (CCL21)	binding to PSGL-1 (CXCL12 [3])	binding to PSGL-1 (CCL5 [4])	binding to PSGL-1 (CCL27)	binding to PSGL-1 (CCL19)
heparan sulfate	did not bind	found to bind	did not bind	found to bind						
PSGL-1: P-selectin glycoprotein ligand-1 as tested in previous literature studies (protein, UniProt Q14242 42-412, looked up) P-selectin glycoprotein …: QATEYEYLDYDFLPETEPPEMLRNSTDTTPLTGPGTPESTTVEPAARRSTGLDAGGAVTELTTELANMGNLSTDSAAMEIQTTQPAATEAQTTQPVPTEAQTTPLAATEAQTTRLTATEAQTTPLAATEAQTTPPAATEAQTTQPTGLEAQTTAPAAMEAQTTAPAAMEAQTTPPAAMEAQTTQTTAMEAQTTAPEATEAQTTQPTATEAQTTPLAAMEALSTEPSATEALSMEPTTKRGLFIPFSVSSVTHKGIPMAASNLSVNYPVGAPDHISVKQCLLAILILALVATIFFVCTVVLAVRLSRKGHMYPVRNYSPTEMVCISSLLPDGGEGPSATANGGLSKAKSPGLTPEPREDREGDDLTLHSFLP					novel pH-dependent ligand	reported to bind PSGL-1	did not bind	did not bind	reported to bind PSGL-1	reported to bind PSGL-1
